Data reported in patent US9365620B2, “Methods for treating pain” (NoNO NC., priority 2008, dated 2016).

Columns and labels:
N-type calcium channels = N-type calcium channels (Mus musculus, UniProt O55017); format: cell-based, Swiss mice
IL-8RB = target: T1, IL-8RB (Homo sapiens, UniProt P25025); test: Competitive binding assay, IL-8/IL-8RB; details: peptide at 10 μM
T1 sequence (P25025 1-360): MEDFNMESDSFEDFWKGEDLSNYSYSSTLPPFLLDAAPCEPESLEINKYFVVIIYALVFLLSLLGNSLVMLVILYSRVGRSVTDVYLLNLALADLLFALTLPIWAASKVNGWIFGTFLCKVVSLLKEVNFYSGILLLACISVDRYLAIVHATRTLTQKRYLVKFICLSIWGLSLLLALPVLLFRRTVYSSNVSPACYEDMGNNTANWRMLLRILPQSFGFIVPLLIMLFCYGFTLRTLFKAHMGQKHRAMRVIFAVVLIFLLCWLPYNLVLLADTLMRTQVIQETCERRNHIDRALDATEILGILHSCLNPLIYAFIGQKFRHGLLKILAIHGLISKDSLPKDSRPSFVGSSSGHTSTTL

Row | Sequence | Ca^2+ current shown as a percentage (N-type calcium channels) | inhibition of N-type calcium channel activity (N-type calcium channels) | frequency (use) dependence of block of Ca^2+ currents (N-type calcium channels) | voltage dependence of inhibition of Ca^2+ current (N-type calcium channels) | inhibition of IL-8/IL-8RB (IL-8RB)
1 | FGRKKRRQRRRKLSSIESDV (synthetic 1993 peptide F-Tat-NR2B9c) [Peptide 1993, variant in which the Y residue at position 1 of Tat-NR2B9c was mutated to F] | 91+/−1.6% | no significant inhibition |  |  | 
2 | YGRKKRRQRRRKLSSIESDV [Tat-NR2B9c] (Synthetic peptide Tat-NR2B9c) [chimeric peptide of a standard tat peptide and …] | 68+/−1.7% |  | not frequency dependent | voltage-independent manner | 80%
